The supplement of paper PMC10567573

B1: WDFY1 (parent)
chain: FWNIKQMWDTKTLGLRQHHCRKCG

Variants of: B1
Assay: protein stability index of a GFP-peptide fusion (GPS, HEK-293T) (PSI 1-6); higher = more stable
Details: c terminus: a fixed tail appended
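Further: lentivirally expressed fusions sorted by FACS into six bins by GFP to DsRed ratio, PSI derived from sequencing read proportions per bin multiplied by bin number.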

Protein stability index, by site and new letter:
W8: H 2.24; T 2.52; L 1.76; R 1.42; G 2.81; C 2.54; A 2.57; M 2.78; I 1.75; S 3.12; K 2.18; F 1.67; Y 2.6
N3: Y 2.37; V 1.27; W 2.85
H19: G 1.63; C 2.14; V 2.17; P 2.66; T 1.59; E 2.09; K 2.33; Y 2.5; F 1.64; N 2.23; S 2.13; I 2; R 1.75; Q 2.4; W 1.66; A 2.14; M 1.92; D 2.21; L 2.23
T10: C 2.11; K 3.11; L 2.23; M 2.16; Y 1.41; G 1.89; D 2.56; E 2.39; H 2.13; R 2.06; P 2.28; W 2.48; I 2.31; V 2.04; S 2.18; A 1.48; Q 1.91; N 2.04; F 2.52
G14: R 3.17; M 1.75; D 2.69; S 1.97; W 1.87; N 2.08; E 2.44; H 1.85; Y 1.48; Q 2.54; P 2.11; C 2.27; K 1.79; A 2.1; V 1.58; I 1.87; F 2.78; T 2.68; L 2.54
T12: G 1.77; F 2.11; N 1.84; E 1.72; K 2; I 1.63; H 1.86; M 2.6; A 2.29; V 2.33; L 1.36; R 2.73; C 3.57; Y 2.72; W 1.79; P 1.98; D 1.91; S 2.14; Q 2.39
D9: W 1.75; I 1.94; L 1.6; K 1.33; M 1.25; R 2.24; N 1.77; H 2.05; T 1.47; Q 1.5; F 1.7; E 1.95; C 1.53; V 3.82; G 1.73; S 2.02; A 1.98; Y 1.89
Q6: A 1.9; L 1.47; H 2.22; I 2.45; T 2.04; C 2.29; N 2.22; S 2.01; K 2.13; G 2.55; Y 1.92; F 2.36; E 2.37; V 2.5; M 2.06; R 2.38; P 1.97; D 2.42; W 1.79
K5: I 2.15; F 2.33; V 1.69; P 2.17; A 1.97; D 2.27; N 2.28; S 1.72; L 1.07; G 1.96; T 1.97; Y 1.36; Q 2.03; E 2.43; R 1.82; C 1.79; M 1.87; W 2.11; H 2.03
I4: M 2.35; L 1.74; R 1.45; C 2.67; P 2.55; K 2; F 1.54; T 2.14; G 2.19; E 3.05; Y 1.9; D 2.56; A 1.89; V 2.52; N 2.13; H 2.56; S 1.95; W 3.44; Q 3.12
